Assay: yeast display, Sf9 membrane polyspecificity reagent, FACS + sequencing; frameworks hold sequencing errors
In short: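 Galactose-induced (36–48 hours) yeast carrying a synthetic nanobody display library were exposed to 10% biotinylated, detergent-solubilized Sf9 membrane reagent at 4 °C for 1 hour. FACS followed streptavidin microbead enrichment, using low and high (top ~1%) gates for expression (anti-HA) and reagent binding (streptavidin). Colony PCR, MiSeq 2 × 250 sequencing and CDR-length filtering followed. Labels for polyreactivity reflect the gate of origin.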

| Sequence | polyreactivity (PSR sort gate) |
| --- | --- |
| QVQLVESGGGLVQAGGSLRLICAASGSTFGFNAMGWSRQAPGKERELLPLLWSGGSTYYADSVKGRFTISRDNAKNTVYLQMNSLIPEDTAVYYCNKDSPPITRYDYWGQGTQVTVSS | low polyreactivity |
| QVQLVESGGGLLQAGGSLRLSCAASGLTFVGYDMGWYRQAPGKERELVAAISTGGGSTYYADSVKGRFTISRDNAMNTVYLKMNSLKPEDTAVYYCNKLRLHGDRYDYWGQGTQVTVSS | high polyreactivity |
| QVQLVESGGGLVQAGGSLRLSCAASGFTFERYAMGSYRQAPGKERELVAAISSRGGGTYYADSVKGRFTISRENAKNTVFLQMNSLKPEDTAVYYCNRPYDYSYNYWGQGTQVTVSS | high polyreactivity |
| QVQLVESGGGLVQAGGILRLSCAASGSIFSGNDMGWYRQAPGKERELVASINRSGGSTNYAVSVKGRFTISRDNAKNTVYLQMNSLKPEDTAVYYCARDFSFLGNASARLDYDYWGQGSQVTVSS | low polyreactivity |
| QVQLVESGGCLVQAGGSLRLSCAASGLIFYTYAMGWYRQAPGKERELVASISSGGDSTYYADSVKGRFTISRDNAKNTVYLQMNSLKPEDTAVYYCNADYYYSYPYTYYYWGQGTQVTVSS | low polyreactivity |
| QVQLVESGGGLVQAGGSLRLSCAASGITFRVYVMGGYRQAPGKERELVAAITSGTSTYYADSVKGRFTISRDNAKNTVYLQMNSLKPEDTAVYYCAADWDLFYAVVGFDFDYWGQGTQVTVSS | low polyreactivity |
| QVQLVESGGGLVQAGGSLRLSCAASGSIFWGNDMGWYRQAPGKERELVAGIRNSGTSTYYADSVKGRFTISRDHAKNTVYLQMNSLKPEDTAVYYCAAADGRQYSRYYWRGHDYWGQGTQVTVSS | low polyreactivity |
| QVQLVESGGGLVQAGGSLRLSCAASGSTFRWYTMGWYRQAPGKERELVAAITASGGSTFYADSVKGRFTISRDNAKNTVYLQMNSLKPEDTAVYYCAAVNRPRPRRSDYWGQGTQVTVSS | high polyreactivity |
| QVQLVESGGGLVQAGGSLRLSCAASGITFARYTMGWYRQAPGKERELVAAISWSGTSTYYADSVKGRFTISRDNAKNTVYLQMNSLKPEDTAVYYCAAGYSASRKVDYWGQGTQVTVSS | high polyreactivity |
| QVQHVESGGGLVQAGGSLRLSCAASGRTSYGNTMGWYRQAPGKERELVATISGGGSTNYADSVKGRFTISRDNAKNTVYLQMNSLKPDDTAVYYCAARRYPFPGYRYYYWGQGTQVTVSS | high polyreactivity |
| QVQLVESGGGLVQAGGSLRLSCAASGRTFRWYTMGWYRQAPGKEREFVAAITWSGSSTDYADSVKGRFTISRDNAKNTVYLQMNSLKPEDTAVYYCAAENRRSRDDYWGQGTQVTVSS | high polyreactivity |
| QVQLVESGGGLVQAGGSLRLSCAASGSIFWRNAMGWYRQAPGKERELVAAITSGGTTNYADSVKGRFTISRDNAKNTVYLQMNSLKPEDTAVYYCATGASYLRRYDHPHSDVDYWGQGTQVTVSS | low polyreactivity |
| QVQLVESGGGLVQAGGSLRLSCAASGIIFRRYAMGLYRQAPGKERELVAAISSRGGSTYYADSVKGRFTISRDNAKNTVYLQMNCLKPEDTAVYFCAKGFSGTGGSGDFGYWGQGTQETVSS | high polyreactivity |
| QVQLVESGGGLVQAGGSLRLTCAASGSTFRLNAIGWYRQAPGKERELVAAISRSTGTTHYADSVKGRFTISRDNAKHTVYLQMNSLIPEDTAVYYCAAQGGDGVLALYYYWGQGTQVTVSS | low polyreactivity |
| QVQLVESGGGLVQAGGSLRLSCAASGSTFNVYGLGWYRQAPGKERELVAAINRDGITYADSVKGRFTISRDNAKNTVYLQMNSLKPEDTAVYYCAAGYSPYKGSAGYYWGQGTQVTVSS | low polyreactivity |
| QVQLVESGGGLVQAGGSLRLSCAASGRTFWYYAMGWYRHAPGKERELVAAITSGGSTNYADSVKGRFTISRDNAKNTVSLQMNSLKPEDTAVYYCAKLFRQRRYWDWYDYWGQGTQVTVSS | high polyreactivity |
| QVQLVESGGGLFQAGGSLRLSCAASGLIFGRYAMGWYRPAPGKERELVAAISRSGGSTHYADSVKGRFTISRDNAKNTVYLQMNSLKPEDTAVYYCAAVWPFDRSRMDYWGQGTQVTVSS | high polyreactivity |
| QVQLVESGGGLVQAGGSLRLSCAASGFIFSYYAMGWYRQAPGKERELVAAISSSGSRTYYADSVKGRFTISRDNAKNTVYLQMNSLKPEDTAVYYCNARTTSGWGQGTQVTVSS | high polyreactivity |
| QVQLVESGGGLVQAGGSLRLSCAASGIIFRRYAMGWYRQAPGKERELVAAITGSGGSTYYADSVKGRFTISRDNAKNTVYLQMNSLKPEDTAVYYCAAQSLLRFASSRYNSWGQGTQVTVSS | high polyreactivity |
| QVQLVESGGGLVQAGGSLRLSCAASGFTFPNYAMGWSRQAPGKERELVAAITSGGGRTNYSDSVKGRFTISRDTAKNTVYLQMNSLKPEDTAVYYCAAEYRYDYRVYSHLHVWRYDYWGQGTQVTVSS | low polyreactivity |
| QVQLVESGGGLVQARGSLRLSCAASGFNFRSYAMASYRQAPGKERELVAAINSRAGNTYYADSVKGRFTISRDNSKNTVYLQMNSLKPEDTAVYYCNAVRHTYGYYSCGQGTQVTVSS | high polyreactivity |
| QVQLVESGGGLVQAGGSLRLSCAASGSTSANYAMGWYRPAPGKERELVAAISGGARTNYADSVKGRFTISRDNAKNTVYLQMNSLKPEDTAVYYCATDAYYYNLLYLFPRYDYWGQGTQVTVSS | low polyreactivity |

| Sequence | polyreactivity (PSR sort gate) |
| --- | --- |
| QVQLVESGGGLVQAGGSLRLSCAASGFTFAYYAMGWYRQAPGKERELVAAITSGGSTKYADSVKGRFTISRDNAKNTVYLQMNSVKPEDTAVYYCFLRGRATQWDFGYWGQGTQVTVSS | high polyreactivity |
| QVQLVESGGGLVQAGGSLRLSCAASGRIFDYYTMGWYRQAPGKERELVAAINWSGGSTYYADSVKGRITISRDKAKNTVYLQMNSLKPEDTAVYYCATLSYGREYGYWGQGTQVTVSS | low polyreactivity |
| QVQLVESGGGLVQAGGSLRLSCAASGSIFSRNAMGWYRQAPGKEREFVARISWSSTSTNYAESVKGRFTISRDNAKNTVYLQMNSLKPEDSAVYYCAAHFRGDRRFDYWGQGTQVTVSS | high polyreactivity |
| QVQLVESGGGLVQAGGSLRLSCAASGRIFWPYAMGWYRQAPGKERELVAAISSSGGSTYYADSVKGRFTISRDNAKNTVYLQRNSLKPEDTAVYYCNAYSGLSYRYGYSYWGQGTQVTVSS | high polyreactivity |
| QVQLVESGGGLVQAGGSLRLSCAASGSIFSYYDMGWYRQAPGKERELVAAIRWSGGITYADSVKGRFTISRDNAKNTVYLEMNSLKPEDTAVYYCAADQYYRSDYYYWGQGTQVTVSS | low polyreactivity |
| QVQLVESGGGLFQAGGSLRLSCAASGFTFNRNAMGWYRQAPGKERELVAAISWSGGSTYYADSVKGRFTISRDNAKNPVYLQMNSLKPEDTAVYYCAKGYRRVYGPFYYWGQGTQVTVSS | low polyreactivity |
| QVQLVESGGGLVQAGGSLRLSCAASGSTFGKNAMGWYRQAPGKERELVAAITRRGGSTNYADSVKGRFTISRDNAKNTVYLQINSLKPEDTAVYYCAASWGRTSSKPFDYWGQGTQVTVSS | high polyreactivity |
| QVQLVESGGGLVHAGGSLRLSCAASGFTFKENAMGWSRPAPGKERELVAAISSTGGSTYYADSVKGRFTISRDNATNNVYLQMHSLNPDDTAVYYCAASTYWYDGDYWGQGTQVTVSS | high polyreactivity |
| QVQLVESGGGLVQAGGSLRLSCAASGLTFGGNAMGWYRQAPGKERELVAGISSSGNTNYADSVKGRFTISRDNAKNTVYLQMNSLKPEDTAVYYCAADENITYPVYDMYYWGQGTQVTVSS | low polyreactivity |
| QVQLVESGGGLGQAGGSLRLSCAASGLIFGLYAMGWYRQAPGKERELVAAISYRTDSTYADSVKGRFTISRDNAKNTVYLQMNSLKPEDTAVYYCAADLRVSVRYYYWGQGTQVTVSS | low polyreactivity |
| QVHLVDTGGGLVKAGGSLRLSSAASGSTFEYYSMGWYRQEPGKERQLVPSISSGGSTNYADSVKGRFTISRDNAKNTVYLQMNSLKPEDTAVYYCAAEFAVSFYWSWLGQDYNFWGLGTQVTVSS | high polyreactivity |
| QVQLVESGGGLDQAGGSLRLSCAASGITIIGYAMGWYRQAHGKERELVASITSGANTNYADSVKGRFTISRANAKNTVYFQMNSLKPEATAVYYCAAPEHGTYANILGEPLDYWGQGSQVTVSS | low polyreactivity |
| QVQLVESGGGLVQAGGSLRLSCAASGFIFAPNAMGWYRQAPGKERELVAAISHSGASTFYADSVKGRFTISRDNAKNTVYLQMNSLKPEDTAVYYCAAPPYYSYDYWGQGTQVTVSS | low polyreactivity |
| QVQLVESGGGLVQAGGSLRLSCAASGSTFTYYAMGWYRQAPGKEREFVATIRRSGGRTNYADSVKGRFTISRDNAKNTVYLQMNSLKPEDTAVYYCNARYTNVRGFDYWGQGTQVTVSS | high polyreactivity |
| QVQLVESGGGLVQAGGRLRLSCAASGSTIRLYAKGWYRQAPGKERELVAAISVSGGSTHYADSVKGRFTISRDNAKNTVYLQMNSLKPEDTAVYYCNAAGNPVSRYHYDYWGQGTQVTVSS | high polyreactivity |
| QVQLVESGGGLVQAGGSLRLSCAASGIIFGTNAMGWYRQAPGKERELVAYITSGGSTYADSVKGRFKISRDNAKNTVYLQMNSLKPEDTAVYSCAAYVFWAFYEYDYWGQGTQVTVSS | low polyreactivity |
| QVQLVESGGGLVQAGGSLRLSCAASGRNFKYNAMGSYRTAPGKERELVAAISSGGSTKYADSVKGRFTISRDNATKTVYLQMNSLKPEDTAVYYCNAVYTPYRRSFYYWGQGTQVTVSS | high polyreactivity |
| QVQLVESGGGLVQAGGSLRLSCAASGFTYDNYAMGWYRQAPGKERELVAAIRRSGSRTYYPDSVKGRFTISRDNAKNTVYLQMNSLKPEDTAVYYCAAVWYRLYGYCGQGTQVTVSS | low polyreactivity |
| QVQLVESGGGLVQAGGSLRLSCAASGGIFVRYAMGWYRQAPGKERELVAAISSSGDRTYYADSVKGRFTISRDNAKNTVYLQMHSLKPEDTAVYYCNADRGHDKVDYWGQATQVTVSS | low polyreactivity |
| QVQLLESGGGLVQAGGSLRLSCAASGSTFGFYAMGCYRPAPGKERELVAAISKSGDITYYADSVKGRFTNSLDNAKNTVYLQMNSLKPEDTAVYYCADRYGYLDNSIYVYWGQGTQVTVSS | high polyreactivity |
| QVHLVESGGGLVQAGGSLRLSCAACGLTFTHYTMGWYRQAPGKERELVAAITTSGGSTYYADSLKGRFTISRDNAKKTVYLQLNSLKPEDTPVYYCAADLGGNSRLDYWGQGTQETVSS | high polyreactivity |

Source: the nanobody polyreactivity screen of Harvey et al. (2022)
